Data reported in paper PMC6158253.

Test system: T1, BmoR (MarR-type regulator) (Bacteroides fragilis 638R), ORF:dbdd3c1d
T1 sequence: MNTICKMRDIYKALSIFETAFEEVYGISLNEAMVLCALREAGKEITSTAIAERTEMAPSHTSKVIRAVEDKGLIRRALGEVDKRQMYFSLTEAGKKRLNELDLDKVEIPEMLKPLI
Experiment: EMSA

Q: “ACGAGACCGATAAATGTGAGTCGGTTCTTTTTCAAAAATGCTTTAATCATCTTTATTTCAGGGTGTTTTAGAATCTGTCTGAATTTTGTTCGAGATTGTTTTGAGATTTATTTTCAAGGATATTCTCTTGTCTCTGTGAAGGCATAGCGGGCTATGTGACGCATGAAAACA (double strand) [BF638R_2699-2701 operon promoter, 171 bp]” was tested. Which binding did it give?
A: no binding

Q: “CCGGCCTCCATATCAAACAATAACCCGTTGCAACCTATGGATATTGGTGGTGTTCCATTCTATCGTACCTATGCCGTTAATTTAACCGTAAGATTCTAAAACATCTATATTGAAAGATATGAAAACATTTAAATATTTATTTGCAGGAGTTTGTTCCGTGT (double strand) [BF638R_4194 promoter (Methods text says BF638R_4199), 161 bp]” was tested. Which binding did it give?
A: no binding

Q: With “CCTGCTACGCCTCCAATAATAATAATCTTCATTTGAATATATTTTCGTTTTAAAATAGTTTCCTATGGAAATAAACGTTTGCCGACTTAAAAAGGTTCATGGAAAAGCTTAAAAAATTAACAAGTATGGGTTATCTTACTTACGGAAGTGC (double strand) [BF638R_0572-bmoR operon promoter (bmoO), 151 bp]” as the sequence, how does the binding read?
A: binds

Q: With “CGTCTGACAGCAAGATAAAGTCCCTTAAAAGGGCCATGTTTCTTAATCGCTTCAATAGCGTATTGCGAACAAGTAGGAGTGAAACGACATGAAGGAGGAGT (double strand) [hlyD fragment (non-competitor DNA), 101 bp]” as the sequence, how does the binding read?
A: no binding
